Laboratory results reported in the nanobody polyreactivity screen of Harvey et al. (2022).

assay: yeast display, Sf9 membrane polyspecificity reagent, FACS + sequencing; frameworks hold sequencing errors
In short: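 Nanobodies from a synthetic yeast display library (Saccharomyces cerevisiae BJ5465), induced 36–48 hours with galactose, were stained 1 hour at 4 °C with 10% biotinylated, detergent-solubilized Sf9 membrane reagent, enriched on streptavidin microbeads, then FACS-sorted. Anti-HA (expression) and streptavidin (reagent binding) fluorescence set low and high (top ~1%) gates. Polyreactivity labels come from the gate of origin. Genes were colony-PCR amplified, MiSeq 2 × 250 sequenced and filtered by CDR length.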

| Sequence | polyreactivity (PSR sort gate) |
| --- | --- |
| QVQLVESGGGLVQSGGSLRLSCAASGRIFFYYAMGGYRQAPGKERELVATIRDGGGTTYYADSVKRRFTISIDNAKNTVYLQMNSLKTDDTAFYYCNVDVWRKYYYWGQGTQVTVSS | low polyreactivity |
| QVQLVESGGGLVQAGGSLRLSCAASGFILYYYAMGWYRQAPGIERELVAAISWSGDSTYYADSVKGRFTISRDNAKNTVYLQMNSLKPEDTAVYYCAATGQLTHRYYWGQGTQVTVSS | low polyreactivity |
| QVQLVESGGGLVQAGGSLRLSCAASGRTFGPYAMGWYRQAPGKERELVAAITSSGGSTYYADSVKGRFTISRDNAKNTVYLQMNSLKPEDTAVYYCNNLYWRQSQDYDYWGQGTQVTVSS | low polyreactivity |
| QVQLVESGGGLVQAGGSLRLSCAASGRIFTRNTMGWYRQAPGKERELVAAISSGASTYYADSVKGRFTISRDTAKNTVYLQMNSLKPEDTAVYYCATRGYARYWGLGTQVTVSS | low polyreactivity |
| QVQLVESGGGLVQAGGSLRLSCAASGRIFYPYAMGWYRQAPGKERELVADISSAGSTYYADSVKGRFTISRDNAKNTVYLQMNSLKPEDTAVYYCAADRTSGAYYFRFLYDRDYWGQGTQVTVSS | low polyreactivity |
| QVQLVESGGGLVQAGGSLRLSCAASGIIFDYYAMGWYRQAPGKERELVASNSWSGGGTYYADSVKGRFTISRDNAKNTVYFQMNRLNPEDTAVYYCAADGSTVNAPRWSDPYDYWGQGTQVTVSS | low polyreactivity |
| QVQLVESGGGLVQAGGSLRLSCAASGIIFRGYAMGWYRLAPGKERELVAAINQDSGNTYYADSVKGRFTISRDNAKKTVYLQMNSLKPEDTAVYYCAASSRLNRWNYYAFDYWGQGTQVTVSS | high polyreactivity |
| QDQLVESGGGLGQAGGTLRLSCAASGNTFTFNTMGWHRQEPGKEREVVAVISRSGGSTYYSDSVKGRITISRDNAKNTVYLQMNSLKPEDTAVYYCAAQGYWYGFVPYDYWGQGTQVTVSS | high polyreactivity |
| QVQLVESGGGLVQAGGSLRLSCAASRTIIASYAMGSYRQAPGKERELVAAISRSGGRTYYADSVKGRFTISRDNAQNTVYLQMNSLKPEDSAVYYCNVLQPQSSDWLITYDYWGQGTQVTVSS | high polyreactivity |
| QVQLVESGGGLVQAGGSLRLSCAASGRTFGSNAMGWYRQAPGKERELVAAITKSGGGTYYADSVKGRFTISRDNAKNTVYLQMNSLKPEDTAVYYCAARRYARSGGALYPYDYWGQGSQVTVSS | high polyreactivity |
| QVQLVESGGGLVQAGGSLRLSCAASGSIFKAHTMGWYRQAPGKERELVAAISGSGGRTRYADSVKGRFTISRDNAKITVYLQMNSLKPDVTAVYYCAASDRGGYYYWGQGTQVTVSS | high polyreactivity |
| QVQLVESGGGLVQAGGSLRLSCAASVSIFWLYAMGWYRQAPGKERELVAAITYSGGRTYADSVKGRFTISRDNAKNTVYVQMISLKPEDTEVIYCATVFRYRKSWGYDYWGQGTQVTVSS | low polyreactivity |
| QVQLVESGGGLVQAGGSLRLSCAASGIIFYSNTMGWYRQAPGKERELVAGISRSGSSTYYADSVKGRFTISRDNAKNTVYLQMNSLKPEDTAVYYCAAYRYGVTNAYGYWGQGTQVTVSS | high polyreactivity |
| QLQLVESGGGLVQAGGSLRLSCAASGLTSPGNAMGWYRQAPGKEMELVAAISSGGNTYYADSVKGRFTISRDNAKNTVYLQMNSLKPEDTAVYYCNAGGGTNYGSGYWFGYYYWGQGSQVTVSS | low polyreactivity |
| QVQLVETGGGLVQAVGSLRLSCAASGYTFLLYAMGWYRQAPGKERELVASISWNVGSTYYADSVKGRFTISRDNAKNTVYLQMNSLKPEDTAVYYCARGYERPRVATFHRFDYWGLGTQVTVSS | low polyreactivity |
| QVQLVESGGGLVQAGGSLRLSCAASGSIFHDYAMGWYRQAPGKEREMVAAIRWSGGSTYYADSVKGRFTISRDNAKNTVYLQMNSLKREETAVYYCNAVTFGRDNVQLVKFGYWGQGTQVTVSS | low polyreactivity |
| QVQLVESGGGLVQAGGSLRLSCAASGSTFGPNAMGWYRQAPGKERELVAAIRSNGGRTYYADSVKGRFTISRDNAKNTVYLQMNSLKPEDTAVYYCAAPHYPYDTPYGYWGQGTQVTVSS | low polyreactivity |
| QVQLVESGGGLVQAGGSLRLSCAASGSTFGGYVMGWYRQAPGKERELVAAISGNGASTTYADSVKGRFTISRDNAKSTFYLQLNSVKPEDTAVYYCGAMYRKAHSDYDYWGQGTQVTVSS | low polyreactivity |
| QVQLVESAGGLVQAGGSLRLSCAASGSIFPGYAMGWYRQAPVKERELVATITWSGGSTYYADSVKGRFTISRDNAKNSVYLQMNILKPEDTAVYYCNADSNWYYQWNYYGLYDYWGQGTQVTVSS | low polyreactivity |
| QVQLVESGGGLVQAGGSLRLSCAASGRTFVYNAMGWYRQAPGKERELVAAIDGGGDRTYYADSVKGRFTISRDNAKNTVYLQMNSLKPEDTAVYYCARDPGDTYYYSYPEGDYWGLGTQVTVSS | low polyreactivity |
| QVQLVESGGGLVQAGGSLRLSCAASGSTFFLYMGWYRQAHGKERELVAAITVSGGSTYYADSVKGRFTISRDNAKNTVYLQMNSLKPEDTAVYYCNADWVMRYDYWGQGTQVTVSS | low polyreactivity |
| QVQLVESGGGLVKAGGRLRLSCAASGSIFKKYAMGWYRQAPGKERELVAAITSGRSTYYADSVKGRFTISRDNAKKTVYLQMNSLKPEDTAVYYCANYRKGSLGSWGQGTQGTVSS | high polyreactivity |

| Sequence | polyreactivity (PSR sort gate) |
| --- | --- |
| QVQLVESGGGLVQAGGSLRLSCAASGSNYTYYAMGWYRQAPGKERQLVAAIRSSGSTYYADSVKGRFTISRDNAKNTVYLQMNSLKPEDTAVYYCAAKARRLNASSYDYWGQGTQVTVSS | high polyreactivity |
| QVQLLESGGGLVQEGGSLRLSCAASGFIFSKNVMGWYRHAPGKERELVARITRSGGTTYYADSVKGRFTISRDNAKYTVYLQMNSLKPEDTAVYYCAARRYGYTSITWYDYWGQGTQVTVSS | high polyreactivity |
| QVQLVESGGGLVQAGGSLRLSCAASGSICVRNTMGWYRQAPGKERELVAAISSRGTSTYYADSVKGRFTISRDNAKNTVYLQMNSLKPEDTAVYYCAARVYPYNSWGQGTQVTVSS | high polyreactivity |
| QVQLVESGGGLVQAGGSLRLSCAASGSIFGWYAMGWYRQAPGTERELVAAIRRGGSTNYADSVKGRFTISRDNAKNTVYLQMNSLKPEDTAVYYCAAGKSGYSKRIFRYSFDYWGQGTQVTVSS | high polyreactivity |
| QVQLVESGGGLVQAGGSLRLSCAASGFTFDYNAMGWYRQAPGKERELVAAISASGGSTYYADSVKGRFTISRDTAKNTVYLQMNSLKPEDTAVYYCAAKRFSPQHRYDHWGQGTQVTVSS | high polyreactivity |
| QVQLQESCGGLVQAGGSLRLSCAASGTIITARFMGWYRQAPGKERELVATITDGGNNNHAESVKGRFTISRDNAKNTVYLQMNSLKPEDAAVYYCAAGEVDNDTLLYWGQGSQVTVSS | low polyreactivity |
| QVQLVESGGGLVQAGGSLRLSCAASGIISYYYAMGWYRQAPGKERELVAAISSSGNTYYADSVKGRFTISRDNAKNTVYLQMNSLKPEDTAVYYCAAESYGYYAADDDNYLTWYDYWGQGTQVTVSS | high polyreactivity |
| QVQLVESGGGLVQAGGSLRLICAASGSIFLTNAMGWYRQAPGKEREFVAAIDWGCTITYYADSVKGRFTISRDNAKNTVYLQMNSLKPEDTAVYYCGADPTYPYGYWGQGTQVSVSS | low polyreactivity |
| QVQLVESGGGLVQAGGSLRLSCAASGIFRSNAMGWYRQAPGKERELVAGISSGGGTNYADSVKGRFTISRDNAKNTVYLQMNSLKPDDTAVYYCAKERIYFYYWYVYTDLVYEYDYWGQGTQVTVSS | low polyreactivity |
| QVQLVESGGGLVQAGGSLRLTCAASGFTLDVNAMGWYRQAPGKERELVATISWGGASTYYADSVKGRFTISRDNAKNTVYLQMNSLKPEDTAVYYCAAQYYYPDDKGGYDYWGQGTQVTVSS | low polyreactivity |
| QVQLVESGGRLVQAGGSLRLTCAASGRIFSVNAMGWYRQAPGKERELVAAITPGASTNYADSVKGRFTISRDNAKNTVYLQMTSLKPEDTAVYYCAAGWVSFEDWVLGSYYEYDYWGQGTHVTVSS | low polyreactivity |
| QVQLVESGGGLVQAGGSLRLSCAASGFIFGPNAMGWYRQAPGKERELVAAIRWSSGTTYYADSVKGRFTISRDNAKNTVSLQMNSLKPEDTAVYYCAAGPYVSYYWGQGTQVTVSS | low polyreactivity |
| QVQLVEAGGGLVQAGGSLRLSCAASGGTFTAYAMGWYRQAPGKERELVAAISASGDSTYYADSVKGRFTISRDNAKNTVYLQMNSLKPEDTAVYYCNADWYRTGRRGSDYWGQGTQVTVSS | low polyreactivity |
| QVQLVESGGGLVPAGGSLRLSCAASGRTFYYYAMGWYRQAPGKERELVAAIRRSGSSTYYADSVKGRFTISRDNAKNTVYLQMNSLKPEDTAVYYCAARPRRPRSNYWGQGTQVSVSS | high polyreactivity |
| QVHHVESGGGLVQAGGSLRLSCAASGSTIDEYAMGWYRQAPGKERELVAAIDWSTGSTYYADSVKGRFTISRDNAKNTVYLQMNSLKPEDTAVYYCAADSGYGPYYYWGQGTQVTVSS | high polyreactivity |
| QVQLVESGGGLVQAGGTLRLSCAASGSIWRYAMGWYRKAPGKERELVATIARRGGSTYYADSVKGRFTISRDNAKNTVYLLMNSLKPEDPAVYYCAAAESASSFRFDYWGQGTQVTVSS | high polyreactivity |
| QVQLVESGGGLVQAGGSLRLSCAASGNTFYGYAMGWYRPAPGKERELVASITLSGDSTYYADSVKGRFTISRDNAKNTVYLQMNSLKPEDTAVYYCAGVYTYPLGYYHYTYDYWGQGTQVTVSS | low polyreactivity |
| QVQLVESGGGLVQAGGSLRLSCAASGFTFSLYDMGWYRQAPGKERQLVADINGSGGSTYYADSVKGRFTISRDNAKNTVYLQMNSLKPEDTAVYYCAAGPPSRWWYIVDYGYWGQGTQVTVSS | high polyreactivity |
| QVQLVESGGGLVQAGGSLRLSCAASGRTFYTYAMGWYRQAPGKERELVAAITYRGGNTYYADSVKGRFTISRDNAKNTVYLEMNSLKPEDTAVYYCAATYKRRSGQSFDYWGQGTQVTVSS | high polyreactivity |
| QVQLVESGGGLVQAGGSLRLICAASGSIFPSYAMGWYRQAPGKERELVAAISVSGGRTYYADSVKGRFTISRDNAKYSVYLQMNSLKPEDTAVYYCATVGKQKYDAKYGYWGQGTQVTVSS | high polyreactivity |
| QVQLVESGGGLVQAGGSLRLSCAASGSIFWVYAMGWYRQAPGKERELVAAISNSGSTNYADSVKGRFTISRDNAKNTVYLQMNSLKPEDTAVYYCAKDSLVDHVGGYDYWGQGTQVTVSS | low polyreactivity |
